Experimental findings from the DeepSol protein solubility set are described below.

This data set in a line: soluble on expression in E. coli; label from the status in PepcDB or PDB records.
Consider “REGMNTIARNLGITCSADIGLISIEYTCFSNNLSYTQVLSLPKTGVNTDKLDQMERFVKEFGNDCSSLTIRQIHNKLDTVQRK”, for which the “soluble on expression in E. coli” value is reported as “not soluble”.
Next, “MGSDKIHHHHHHMTQSPDLQAVLDYADAHMNDSLARLFDLVRIPSVSTVPAHAGDCRAAAQWLSDQLNDLGFDASVRPTGGHPMVVAHQTDADGPHVLFYGHYDVQPVVPLELWKTDPFEPTLEPQPNGDTHITGRGASDDKGQLLTFIEACRAWKAVTGRLPIKVSMLFEGEEESGSQSLGPFLEQTAEELRADVMMVCDTDMWDRDTPAITTMLRGLVGEEFTITTADRDLHSGMFGNAARNALQVASDAIAGLRGPDGGVTLPGFYDGVEDLAPEIKAQWKSLPFDQEGFLSDVGLSLPAGEDAYSIMEQIWARPSCEIHGVIGGYTDEGFKTVIPAKATAKVSFRLVAGQDPARIREAFRAHIRAYVPKDCSVEFTSHGASPALSLPLDSPYLTATREALSQEWGTEAALAGTGGSIPIVGEFKRQLGMDTLLVGFARFDNRIHSPNEKYDLSSFTGGIRSFVRVLAALSEIEAAAAP”: “not soluble”.
Next, “MASQLTQRGALFLLFFLTPAVTPTWYAGSGYYPDESYNEVYAEEVPQAPALDYRVPRWCYTLNIQDGEATCYSPKGGNYHSSLGTRCELSCDRGFRLIGRRSVQCLPSRRWSGTAYCRQMRCHALPFITSGTYTCTNGVLLDSRCDYSCSSGYHLEGDRSRICMEDGRWSGGEPVCVDIDPPKIRCPHSREKMAEPEKLTARVYWDPPLVKDSADGTITRVTLRGPEPGSHFPEGEHVIRYTAYDRAYNRASCKFIVKVQVRRCPTLKPPQHGYLTCTSAGDNYGASCEYHCDGGYDRQGTPSRVCQSSRQWSGSPPICAPMKINVNVNSAAGLLDQFYEKQRLLIISAPDPSNRYYKMQISMLQQSTCGLDLRHVTIIELVGQPPQEVGRIREQQLSANIIEELRQFQRLTRSYFNMVLIDKQGIDRDRYMEPVTPEEIFTFIDDYLLSNQELTQRREQRDICE”: “soluble”; “GPGSMGIPLPKPVMTQLQERYGNTIFRCGSNCVNGYRETMEDAHLTYLTDSWGFFGVFDGHVNDQCSQYLERAWRSAIEKESIPMTDERMKELALQIDQEWMDSGREGGSTGTFFVALKEGNKVHLQVGNVGDSRVVACIDGVCVPLTEDHKPNNEGERQRIENCAGRVENNRVDGSLAVSRAFGDREYKLGSGSQLEQKVIALADVQHKDLTFNSNDFVLLCCDGVFEGNFPNEEVVAYVKQQLETCNDLAEVAGSVCEEAIERGSRDNISCMIVQFKDGSDYAAAPHTTVVPGPFSAPRNSGFRKAYESMADKGNTTVGALLEKRYDTLKAAEALTPEETEELSQFENGPEAKLTGAERQKWFSNYFQKLCEAASNGPSDQMERLQSLQQQAGIPLSILLSLMGEQTQ”: “soluble”.
Next, “MKKLAIVIPAYKVDFFETVLFSLAQQTCKDFTVYIGEDCSRDDFKSLIEQYSKQLDIVYRRFEVNFGGHDLVAQWNRCIQLTQNEPWLWLFSDDDIMGPRCVEYFFNTIAIDNGAFDIYHFDVKIVDCENQIVRIPTVYPSVIDSETFYRRKASARLDSFVVEYIFLRDIYNCTGGFQHFDLAWGSDIATWVKIGADKGIKTISGDYVYWRKSKKNITPNMDNKMVLRKLTADIEFTHWINEFFHKSSVYRFTKYAFFRLVVHYSQAISKSQIRLLLDKAVGKNIISFNDAFIINWTYRFIQLAKRVKDVLYFLEHHHHHH”: “soluble”; “MFLKKETFTRGDASVALFELSGLQRIEYLEFIQKRTAKYDTDMDGTTEADKRVAYMQMALEINAWLVSRSLLNGDSSQDADTLYQSVQAKWSYEALDAGAESVLMLSGLSADKKDNASDSGNESEDMTPEKS”: “not soluble”.
Consider “MGSDKIHHHHHHMQSLPHDVVGYARDYRDGYVSVRHRHPRHQLIYAISGLMMAETDAMSHAIPPGYGLIVPAQQPHEIRMIGAVRLQSLYVRAGLPRADALARCRLVTISPLLAQLIAALCEMANPWPMPPRALHLSQLILIELLAAPVSPLALPYPTDPRLRRVCDGLIATPASPRSLDDWAAEAGMSRRTFSRHFQLETGLSFGKWAQRLRCQAALRGLAKGRPAARVARELGYANAYTMAAMMRRMT”, for which the “soluble on expression in E. coli” value is given as “not soluble”.
Next, “AIAYTFDTTDHKSPCCNFQWYIFRKQGESRIITCELFGVIVSLENRWDWLEFMIDDSLQLTAFRCPKRDKLGMETLLQLGDVAQVTGNWKLSNGAFLNATKIAIHNNPDVECKYWLQQIQKYKSKVCELEIPSDWIRRQQRAHNLKTDAVLSFSAQVSTAAATCWKLWKKHFNQGGKISLQRLWEVIQRENCPKMQELSSCRRNQIVQLLIHLGYLIPLSKEPETYVLLIDDILDKQVMQIFNQNIASKTLSLREVAYRLEEYFHVEEISLERVEESILRLAYKEKVEQV”: “soluble”; “MGSDKIHHHHHHMSSIFSLEGIKALGPDELREIQRGGLPVVIHFGDAGDDFLAYVSDHATEWLGTDAIRTVDARRFMEDKEWKAPMLTSEVLPKTIIVDPARWGDSFADKVAALDMTAFYSSNPVLLDYNDAFEVVFLFSTFYHHTMVSVTDFCNLRCRGCSFHGDDSRYDFAASRGKTERQELKEEDYYLFLDQRKPGDDLLFCGTGELFVSKKAMPYIREAIRRGLHVRILTNGMLVDDKVARELVELGVGAVLFSIDGHTKEIVESIRLGADYDRILANLRNLMRVRDEAGSGMIIGVQSGWFDEVKTRKDEILEFWKEFGIDTFSFFAEQVGWFQCIPMHEDKVMPVKTHACFNSLITPVLMTNGYVAPCTGNYQAEWSSLSSSWMKHISEAPFDEIIRYYRKMRTDPASPYRQRCAMCIGRLSTYVNSEYVSAYAEGYRFSERKSDKEAAFVKFSPQDEKTGFTLKKLWNRLLRR”: “not soluble”.
Turning to “MGSDKIHHHHHHMEESKELFKDIEKHLLNDVRPSEYLNEQLNKGNLNKYPFTMLSDLVHTEQNKEHHPEGNVWNHTLLVVDKAAENREKSSDKRAFMWGSLLHDIGKAKTTKVRKGKITSYNHDKVGETMSREFLQCFSEDEDFIYKVIKLVRWHMQTLFVVKNMSFADSKNMLKETSLDEIALLSLCDRLGRQPMSNGKIQEEKENVRTFVRKVKELNKV”, the “soluble on expression in E. coli” value is reported as “not soluble”.
Next, “MGSDKIHHHHHHMEFNDQRVRYFFEAARLGGVRAAADRMDIAASAVSRQIRQLEMELGATLFERHRRGFQPTEAGRLLLDYHRKQLSEQEAVLTALRELKGIHRGHVSVVTGGGVISDLIDAIHPFSQRYPQITVGIDIRGTNDIVRAVLEDRAHIGVVFYTAPNPLLRVHRSSIQPLYAVAAPDHPLARAERPIRLEELARHKLALPDVSFGVRQILRDAEKAEQCQLEPAIVTNSFRVMVEYALTGQAATVQPRFSVRRELESGQLQAIPIQQRNLQQAEVHLITHHGRRLSPAAARLLETLAASMPAFRDSAVTP”: “not soluble”; “MCQMPCQFSWPYTHYFTQTKNKEKILNKLIVFTGGPGAGKTSVIEQLKTQGFICAPETGRHVIQMQVANHGSALPWNDKQAFRDEMTKEEVSNYRSFNVRQGDVFFDRSIVDVYGYSKLEQLPISHELITHCQTLRYHSQVFIFPPWASIFSNDEERKQDFSEAVATYQQMVDAYHKFGYQLIEVPKMSVEDRVAFILGSVIELEHHHHHH”: “soluble”; “KLKIVEVPQEELFRDDDLLKSVYGILVTAHYRNSPDDLMLLGDMAFQKVIVGYSSENPVAVCQVVYEGGLTDKQIWDISNGLKNEGHLIPHRLIKYMRALDFGKLKGWRIMRIAVSPENQGKGIGSRVIEEVIKMAKGVDWIGSSFVADYSVLRFWIKNGFLPVYLSSIKNEE”: “not soluble”.
Next, “MGSDKIHHHHHHMWITINRNSNISLSRQIYCEIKDMILDGSLKFEQKLPSSRTLSKELSVSRNTVLDAYNQLIAEGYLETRNGYGTIVAKGISGHKVDFKLNDTFRDEKDLHTNKQKNYIDFRSGVPELKLFPRKELSKLYKQILYDLSDSDFRYGSTAGVWVLRVEISKYLFRTRGIRCNPKNIMIVSGSTQGLSLISQLLYKSNKKVAVEDPIHKGLLKVISSIGYSVVGIKVDDKGMNTNLIKSIKGISFVYTTPSHQYPLGGILPIQRRLELIKCATENDYYIIEDDYDSEFRYEGQPISSLYELSPNKVIYIGSFSKILSPAIRVGFMLLPDNILESYKTLKMYSDVHTETILQHVLAEFIGNGGLEKYIFRMKKLYNRKRKYLIKVLNTEFKNEFKIKGEAAGLHIVAHFYNVKFTESLIHKIFEAGIKVYPIQQYAIENILEYDHEIILGYAHLSFDEIEKGVKILSKIIHMNQGT”: “not soluble”; “MLPRGALVLNPFSEKAVSPEDRDMVLRRGIAALDCSWKKVKKSSVIFQTARNHRSLPFLVAANPTNYGKPCILSTAEAVAATLYIVGLKDIASDIMSYFKWGPHFLDLNRELLEAYSRAENSLEVVEIQKKFIGGLEHHHHHH”: “not soluble”; “MNLAKRILQGEQLTKETVLKIYEDTNIDTLDLLNEAYILRKHYFGKKVKLNMILNAKSGICPENCGYCGQSRDIKQKQRYALIPEEQIIDGAKVAHDNHIGTYCIVMSGRGPSDKEVDHISNTVRTIKSQHPQLKICACLGLTNDEQAKKLKSAGVDRYNHNINTSENYHDNVVTTHSYKDRTDTIELMKANNISPCSGVICGMGESNQDIVDMAFALKEMDADSIPINFLHPIKGTKFGSMDDLTPMKCLRIVALFRLINPTKEIRIAGGREVNLRSLQPLALKAANSIFVGDYLITGGQPNQLDYDMINDLGFEIDYDTCENKENKNDVSRAN”: “not soluble”.
Next, “MIVSWRHKGLKAFFETGSSSGIRADHSKRLAHVLAVLNRARTPANVNMPGWRLHPLKGELEGFWSITINANWRIIFRFFDTDVELVDYLDYH”: “not soluble”; “MSLNSEWGKFALWLKHQRISPAELLVPQPQEKLTGWSDPRISQERILGLLARGHSLALAVDKWQRAGLWILTRGDADYPVRLKNRLRTDAPPVLFGCGNKALLQAEGMAIVGSRDAPTDDLRYTQQLAAKLAQQGICVISGGARGIDECAMASALEAGGTAVGVLADSLLKTSTLVKWREGLIAGNLVLISPFYPEVRFTVGNAMARNKYIYCLAESAMVVRAGMTGGTITGAMEALKHQWLPVQVKPNQDMQSANSRLVENGASWSAEQAENVTIRLPDVPGLMYDRAEGHHHHHH”: “soluble”; “MGSDKIHHHHHHMFERSDETLIAQALKGKKSAWLTLVKRYEKNLYNYALRMVNNPADAMDLMQDIFIALFRNLSKFRGECPFKNWLFKIAHYRCLEYYRRKRPMQSLDDVPEQEDEESVCLEKNLQIQQQSSALLEAMQHLPVKQKLVVELKFFQQCTFEDISQQLGISTNTAKSQLYSALDKLKLHLVDDQIIKVGVEYV”: “not soluble”.
On to “MSLHLALLMRGGDPHCILDFGAGNGELCKLIALQFCYEPTPSLMAEAKENLADLPQISFCSDLEKISDGSVELIFCLEVFEHLPEKETKDALGQFDRLLTDNGNAVIGVPVEIGIPALYKGIFRMSRRFNTFDASIKNVLLAALSFPPKDRPVSEITPGFAFHHEHMGFDYRKLQALLHAQFGLQQVTTSPFSIFGPWLNPEVNFLIQKANPAVNADAAR”, for which the “soluble on expression in E. coli” value was “not soluble”.
Next, “GDQPVINFGIISTESSQNLKSIWEPFLKDMSQQTGYQVKAFFAPDYAGIIQGMRFDKVDIAWYGNKAAMEAVDRAHGEIFAQTVAASGAPGYWSLLIANKDSKIDSLEDMLANAKSLTFGNGDPNSTSGYLVPGYYVFAKNNVDPVKAFKRTLNSSHEVNALAVANKQVDVATFNTEGMERLELTQPEKARQLKVIWKSPLIPGDPLVWRNNLSDEQKNKLRDFFFKYGANAEQKKVLADLQWSKFQASDDDQLLPIRQLELFKQRTDVANNANLGAEEKAAKLKALDEELAKLEKRMAEREQKTAANAG”: “soluble”.
